Measured values taken from article PMC6166933 (PLoS ONE, 2018).
“And” between values parts separate entries of the source, which are not always exact repeats. Equal entries are not always repeated.

Target: T1, Recombinant human RO60 (human, UniProt P10155 1-538)
T1 construct: Recombinant human RO60 (rRO60), Abcam ab73786; see the vendor's data sheet for ab73786; also called rRO60; source: bought: Abcam (ab73786)
Assay: BLI; BLItz system; antibody against RO60 captured on a Protein-A biosensor, rRO60 bound to it, rDDX6 bound for 2 min and dissociation for 2 min; 25°C; 10 mM Tris-HCl (pH 8.0), 150 mM NaCl; 193 nM rDDX6 with 917 nM or 1833 nM rRO60
Details: both partners purified

T1 sequence (P10155 whole entry): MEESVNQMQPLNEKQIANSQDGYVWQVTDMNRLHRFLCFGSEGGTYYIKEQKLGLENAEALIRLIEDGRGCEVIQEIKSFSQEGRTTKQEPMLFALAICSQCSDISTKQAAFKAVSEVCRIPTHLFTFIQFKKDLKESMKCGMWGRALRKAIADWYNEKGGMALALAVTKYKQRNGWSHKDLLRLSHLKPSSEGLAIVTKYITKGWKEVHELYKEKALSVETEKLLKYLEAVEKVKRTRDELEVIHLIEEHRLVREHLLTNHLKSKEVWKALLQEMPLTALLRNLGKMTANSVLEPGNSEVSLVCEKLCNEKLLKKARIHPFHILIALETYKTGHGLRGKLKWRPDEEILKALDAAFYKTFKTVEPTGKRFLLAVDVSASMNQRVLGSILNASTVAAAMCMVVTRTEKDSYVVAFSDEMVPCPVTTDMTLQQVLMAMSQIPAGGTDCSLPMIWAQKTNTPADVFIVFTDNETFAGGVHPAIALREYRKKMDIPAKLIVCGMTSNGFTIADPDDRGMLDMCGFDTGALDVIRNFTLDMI

B1: Recombinant GST-tagged human DDX6 (natural protein, UniProt P26196 1-483, looked up)
chain: MSTARTENPVIMGLSSQNGQLRGPVKPTGGPGGGGTQTQQQMNQLKNTNTINNGTQQQAQSMTTTIKPGDDWKKTLKLPPKDLRIKTSDVTSTKGNEFEDYCLKRELLMGIFEMGWEKPSPIQEESIPIALSGRDILARAKNGTGKSGAYLIPLLERLDLKKDNIQAMVIVPTRELALQVSQICIQVSKHMGGAKVMATTGGTNLRDDIMRLDDTVHVVIATPGRILDLIKKGVAKVDHVQMIVLDEADKLLSQDFVQIMEDIILTLPKNRQILLYSATFPLSVQKFMNSHLQKPYEINLMEELTLKGVTQYYAYVTERQKVHCLNTLFSRLQINQSIIFCNSSQRVELLAKKISQLGYSCFYIHAKMRQEHRNRVFHDFRNGLCRNLVCTDLFTRGIDIQAVNVVINFDFPKLAETYLHRIGRSGRFGHLGLAINLITYDDRFNLKSIEEQLGTEIKPIPSNIDKSLYVAEYHSEPVEDEKP
notes: Recombinant GST-tagged human DDX6 (rDDX6), Abcam ab114574; it is not clear that this means full length; The printed 79 kDa with GST would fit the whole protein; also called rDDX6; source: bought: Abcam (ab114574)
- Kd: 0.62 µM and 0.95 µM
